Legend:
[1] = molecular target: putative VISTA-receptor on murine T-cells (2.10 T-cell clone; primary CD4+ T-cells) (mouse); assay: cell-based or functional assay
hICOS-Fc (R&D Systems) [2] = molecular target: T1, hICOS-Fc (R&D Systems) (human, UniProt Q9Y6W8 21-141, limits assumed); assay: SPR single cycle kinetics (Biacore T200), hICOS-Fc immobilized on a CM5 chip
T1 construct: Bought from R&D Systems; also called human ICOS; not shown: Fc part of a bought fusion protein; not described
T1 sequence (looked up): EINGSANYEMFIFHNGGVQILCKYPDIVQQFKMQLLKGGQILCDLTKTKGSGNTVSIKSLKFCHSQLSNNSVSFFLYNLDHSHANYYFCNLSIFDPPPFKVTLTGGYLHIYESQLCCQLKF

hICOS-Fc (R&D Systems) [3] = molecular target: T1, hICOS-Fc (R&D Systems); assay: SPR single cycle kinetics (Biacore T200), hICOS-Fc immobilized on a CM5 chip, 1:1 model

Molecule	anti-CD3-induced 2.10 cell proliferation (3H-thymidine) [1] [µg/mL]	fold stronger KD than hICOSL-Fc (hICOS-Fc (R&D Systems) [2]) [fold]	Kd (hICOS-Fc (R&D Systems) [3]) [nM]
VISTA-Fc (murine VISTA extracellular domain fused to the human IgG-1 Fc region; dimeric) (Fc fusion)	> 30		
murine VISTA.COMP pentamer, histidine tagged (VISTA.COMP.his) (ligand)	1		
human ICOS-L.COMP pentamer (human ICOS-L extracellular domain fused to the COMP pentamerization domain, C-terminal histidine tag) (ligand) DTQEKEVRAMVGSDVELSCACPEGSRFDLNDVYVYWQTSESKTVVTYHIPQNSSLENVDSRYRNRALMSPAGMLRGDFSLRLFNVTPQDEQKFHCLVLSQSLGFQEVLSVEVTLHVAANFSVPVVSAPHSPSQDELTFTCTSINGYPRPNVYWINKTDNSLLDQALQNDTVFLNMRGLYDVVSVLRIARTPSVNIGCCIENVLLQQNLTVGSQTGNDIGERDKITENPVSTGEKNAATWSDLGPQMLRELQETNAALQDVRELLRQQVREITFLKNTVMECDACG		~3	0.9
hICOSL-Fc (R&D Systems), dimeric human ICOS-L ECD Fc fusion (Fc fusion, not shown: a dimerising Fc or GST; small tags and cut ends, Fc-mediated dimer (two copies); the Fc is left out.) DTQEKEVRAMVGSDVELSCACPEGSRFDLNDVYVYWQTSESKTVVTYHIPQNSSLENVDSRYRNRALMSPAGMLRGDFSLRLFNVTPQDEQKFHCLVLSQSLGFQEVLSVEVTLHVAANFSVPVVSAPHSPSQDELTFTCTSINGYPRPNVYWINKTDNSLLDQALQNDTVFLNMRGLYDVVSVLRIARTPSVNIGCCIENVLLQQNLTVGSQTGNDIGERDKITENPVSTGEKNAATWS			2.9
